Laboratory results reported in patent US20030144209A1 (MASSACHUSETTS GERNERAL HOSPITAL, published 2003).
Square brackets hold non-standard residues; d marks the D form. Ends that are not written are not given here. * marks the point of attachment. Propionyl = CCC(=O)*

B1: desamino-[Ala^1]hPTH(1-34)NH2 (peptide)
peptide: [Propionyl]VSEIQLMHNLGKHLNSMERVEWLRKKLQDVHNF-NH2
SMILES: CCC(=O)N[C@H](C(=O)N[C@@H](CO)C(=O)N[C@@H](CCC(=O)O)C(=O)N[C@H](C(=O)N[C@@H](CCC(N)=O)C(=O)N[C@@H](CC(C)C)C(=O)N[C@@H](CCSC)C(=O)N[C@@H](Cc1c[nH]cn1)C(=O)N[C@@H](CC(N)=O)C(=O)N[C@@H](CC(C)C)C(=O)NCC(=O)N[C@@H](CCCCN)C(=O)N[C@@H](Cc1c[nH]cn1)C(=O)N[C@@H](CC(C)C)C(=O)N[C@@H](CC(N)=O)C(=O)N[C@@H](CO)C(=O)N[C@@H](CCSC)C(=O)N[C@@H](CCC(=O)O)C(=O)N[C@@H](CCCNC(=N)N)C(=O)N[C@H](C(=O)N[C@@H](CCC(=O)O)C(=O)N[C@@H](Cc1c[nH]c2ccccc12)C(=O)N[C@@H](CC(C)C)C(=O)N[C@@H](CCCNC(=N)N)C(=O)N[C@@H](CCCCN)C(=O)N[C@@H](CCCCN)C(=O)N[C@@H](CC(C)C)C(=O)N[C@@H](CCC(N)=O)C(=O)N[C@@H](CC(=O)O)C(=O)N[C@H](C(=O)N[C@@H](Cc1c[nH]cn1)C(=O)N[C@@H](CC(N)=O)C(=O)N[C@@H](Cc1ccccc1)C(N)=O)C(C)C)C(C)C)[C@@H](C)CC)C(C)C
notes: Analog of human PTH(1-34) in which Ser1 is replaced by desamino alanine; also called [desamino Ala^1]PTH(1-34); desamino-[Ala^1] peptide
B2: desamino-[Gly^1]hPTH(1-34)NH2 (peptide)
peptide: [Ac]VSEIQLMHNLGKHLNSMERVEWLRKKLQDVHNF-NH2
notes: Analog of human PTH(1-34) in which Ser1 is replaced by desamino glycine; also called [desaminoGly^1]; PTH(1-34); desamino-[Gly^1] peptide

Key:
human PTH-1 receptor = biological target: T1, human PTH-1 receptor (human, UniProt Q03431 27-593); test: cell-based or functional assay
T1 sequence (looked up): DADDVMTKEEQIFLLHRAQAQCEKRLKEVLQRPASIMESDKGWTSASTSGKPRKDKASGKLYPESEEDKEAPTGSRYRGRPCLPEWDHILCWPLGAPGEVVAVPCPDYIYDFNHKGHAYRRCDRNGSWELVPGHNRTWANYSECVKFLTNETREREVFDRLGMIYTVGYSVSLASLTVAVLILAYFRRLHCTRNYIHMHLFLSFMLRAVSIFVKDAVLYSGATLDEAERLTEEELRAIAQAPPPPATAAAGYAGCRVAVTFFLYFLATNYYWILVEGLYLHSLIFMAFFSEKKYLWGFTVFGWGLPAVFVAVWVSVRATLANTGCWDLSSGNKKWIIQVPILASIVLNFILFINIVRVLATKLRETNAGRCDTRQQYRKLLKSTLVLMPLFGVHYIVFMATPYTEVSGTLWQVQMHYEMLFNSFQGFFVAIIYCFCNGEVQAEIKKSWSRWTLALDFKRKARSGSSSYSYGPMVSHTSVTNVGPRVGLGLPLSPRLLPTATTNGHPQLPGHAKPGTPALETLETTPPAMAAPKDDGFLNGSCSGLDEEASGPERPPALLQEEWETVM

human PTH-2 receptor [1] = biological target: T2, human PTH-2 receptor (human, UniProt P49190 25-550); test: cell-based or functional assay
human PTH-2 receptor [2] = biological target: T2, human PTH-2 receptor; test: competitive displacement of 125I-[Nle8,21]rPTH(1-34) from HPR2-7 cells expressing the human PTH-2 receptor
Description: Cell layers were washed three times before solubilization for determination of cell-associated radioactivity.

T2 sequence (P49190 25-550): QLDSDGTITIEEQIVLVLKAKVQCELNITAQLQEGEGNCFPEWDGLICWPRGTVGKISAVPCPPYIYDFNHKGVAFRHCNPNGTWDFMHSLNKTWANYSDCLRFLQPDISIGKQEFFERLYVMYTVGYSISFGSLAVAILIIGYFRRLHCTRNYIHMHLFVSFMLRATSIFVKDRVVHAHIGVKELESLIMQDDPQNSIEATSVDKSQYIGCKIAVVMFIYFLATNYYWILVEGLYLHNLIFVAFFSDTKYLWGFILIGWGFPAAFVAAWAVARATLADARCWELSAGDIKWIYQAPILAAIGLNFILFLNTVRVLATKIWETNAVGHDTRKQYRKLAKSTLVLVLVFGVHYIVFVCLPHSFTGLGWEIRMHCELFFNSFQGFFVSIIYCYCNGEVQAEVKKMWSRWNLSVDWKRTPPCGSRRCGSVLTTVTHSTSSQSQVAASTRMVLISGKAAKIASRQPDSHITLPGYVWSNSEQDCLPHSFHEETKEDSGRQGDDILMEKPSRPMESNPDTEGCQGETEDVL

Molecule	phospholipase C (PLC) activity in HKRK-B7 cells at 1000 nM (% of the hPTH(1-34) maximum) (human PTH-1 receptor)	AC activation relative to hPTH(1-34) (human PTH-1 receptor)	AC activation relative to hPTH(1-34) (human PTH-2 receptor [1])	fold decrease in AC activity relative to the amino-bearing peptide (human PTH-1 receptor)	EC50 of AC activation, fold lower than hPTH(1-34) (human PTH-2 receptor [1])	EC50 of adenylyl cyclase (AC) activation (human PTH-2 receptor [1])	PLC stimulation relative to 1000 nM hPTH(1-34) (human PTH-2 receptor [1])	maximal AC response relative to hPTH(1-34) (human PTH-2 receptor [1])	fold higher apparent binding affinity relative to hPTH(1-34) (human PTH-2 receptor [2])
[Gly^1]hPTH(1-34)NH2 (from UniProt P01270 32-65) (peptide)	50								
VSEIQLMHNLGKHLNSMERVEWLRKKLQDVHNF-NH2 (peptide, UniProt P01270 33-65, looked up) [hPTH(2-34)]		≤ 10 fold	≤ 10 fold						
B1				10 fold	3 fold	10 nM	50 % greater	2 fold	10 fold
B2				10 fold	3 fold	10 nM	50 % greater	2 fold	10 fold
